Measurements from patent publication US20180346588A1 (MOGAM INSTITUTE FOR BIOMEDICAL RESEARCH, published 2018).
Changes are numbered by the printed parent chain.

B1: clone MI323 anti-MSLN antibody (antibody, V domains shown)
VH: EVQLQQSGPELVKPGTSVKISCKASGYSFTSYFIQWVKQRPGQGLEWIGWIFPGSGNTKYNEMFKGKATLAADTSSSTAYMQLSSLTSEDSAVYFCARSGGYQYYFDYWGQGTSVTVSS
VL: DIVMTQSHKFMSTSVGDRVSITCKASQDVSTAVAWYQQKPGQSPKLLIYSASYRYPGVPDRFTGSGSGTDFTFTISSVQAEDLALYYCQQHYSTPWTFGGGTKLEIKR
notes: also called M1323
B2: clone MS502 anti-MSLN antibody (antibody, V domains shown)
VH: EVQLLESGGGLVQPGGSLRLSCAASGFTFSNYAMSWVRQAPGKGLEWVSGIPPDSGSKYYADSVRGRFTVSRDNSKNTLYLQMNSLRAEDTAVYYCAKNMLSFDYWGQGTLVTVSS
VL: QSVLTQPPSASGTPGQRVTISCTGSSSNIGSNAVSWYQQLPGTAPKLLIYYNSKRPSGVPDRFSGSKSGTSASLAISGLRSEDEADYYCGSWDSSLNGYVFGGGTKVTVLG
notes: SPR and FACS done with IgG: human IgG1 heavy chain constant region
B3: clone MS505 anti-MSLN antibody (antibody, IgG1, V domains shown)
VH: B2 VH with G50A, P52Y, S55G, G56S, S57N, R65K, K98R, M100A, L101Y, S102T
VL: B2 VL with Q16R, T23S, K54Q, V107L
notes: From a phage display synthetic scFv library
B4: clone MI329 anti-MSLN antibody (antibody, V domains shown)
VH: EVMLVESGGDLVKPGGSLKLSCAASGFTFSSYAMSWVRRTPEKRLEWVATINSDGSYTFYPDSVKGRFTISRDNAKNTLYLQMNSLRSEDTAMYYCARWGENWYFDVWGAGTTVTVSS
VL: DVVMTQTPLSLPVSLGDQASISCRSSQSLVHSNGNTYLHWYLQKPGQSPKLLIYKVSNRFSGVPDRFSGSGSGTDFTLKISRVEAEDLGIYFCSQSTHFPRTFGGATKLELKR
notes: also called M1329
B5: clone MI407 anti-MSLN antibody (antibody, V domains shown)
VH: EVKLVESGGGLVKPGGSLKLSCAASGFPFSNYDMSWVRQTPEKRLEWVAYISSGGGNTYYPDTVKGRFTISRDNAKNTLYLQMSSLKSEDTALYFCVRQGTSVESYWYFDVWGAGTTVTVSS
VL: DIVLTQSPASLAVSLGQRATISCRASQSVSTSSSSYIHWYQQKPGQPPKLLIKYASNLESGVPARFSGSGSGTDFTLNIHPVEEDDTATYYCQHSWEIPFTFGSGTELEIKR
notes: also called M1407
B6: clone MI403 anti-MSLN antibody (antibody, V domains shown)
VH: EVQVVESGGGLVKPGGSLKLSCAASGFAFSSYDMSWVRQTPEKRLEWVAYISSGGGSTYYPDTVKGRFTISRDNAKNTLYLQMNSLKSEDTAMYYCARQGTAVKNYWYFDVWGAGTSVTVSS
VL: B5 VL with L4M, I37V, K43R, D85E, A88G, E107K
notes: also called M1403
B7: clone 2-78-C2G4 antibody (antibody, V domains shown)
VH: B2 VH with L101F
VL: B2 VL with S94P
notes: IgG (human IgG1 heavy chain constant region; light chain constant region said to be human kappa)
B8: clone MS501 anti-MSLN antibody (antibody, V domains shown)
VH: B2 VH with P52Y, K58T, R65K, V70I, K98R, M100I, L101Y, S102T
VL: B2 VL with T23S, S53N, K54Q, N97S, V107L
notes: as for B3
B9: clone MS504 anti-MSLN antibody (antibody, IgG1, V domains shown)
VH: B2 VH with G50S, P52Y, D54N, S55G, G56S, R65K, V70I, T91M, M100L, S102T
VL: B2 VL with T13P, S31N, A33S, N52D, K54H, S77G, S91A, S94D, G98A, V107L
notes: as for B3
B10: clone MS506 anti-MSLN antibody (antibody, IgG1, V domains shown)
VH: B2 VH with G50S, P52Y, D54G, K58T, R65K, V70I, K98R, M100L, L101Y, S102T
VL: B2 VL with S35T, N52D, K54H, L79P, S91A, N97S, G98A, V107L
notes: as for B3
B11: clone MS502-1 anti-MSLN antibody (antibody, V domains shown)
VH: B2 VH
VL: B2 VL with T23I, G24C, V107L
B12: clone MS503 anti-MSLN antibody (antibody, IgG1, V domains shown)
VH: B2 VH with G50S, P52Y, D54G, S55D, K58T, R65K, V70I, M100A, L101F, S102T
VL: B2 VL with T23S, K54H, S91T, N97S, V107L
notes: as for B3
B13: clone 56 (MS502 heavy chain variable region mutation antibody) (antibody, V domains shown)
VH: B2 VH with G56A
VL: B2 VL
notes: SPR done with IgG (human heavy chain constant region vector, MS502 light chain)
B14: clone 2-78 (MS502 heavy chain variable region mutation antibody) (antibody, V domains shown)
VH: B2 VH with L101F
VL: B2 VL
notes: as for B13
B15: clone 2-73-C2G4 antibody (antibody, V domains shown)
VH: B2 VH with D54N, G56D
VL: B2 VL with S94P
notes: as for B7
B16: clone 2-30-C2G4 antibody (antibody, V domains shown)
VH: B2 VH with G56N, L101R, S102T
VL: B2 VL with S94P
notes: as for B7
B17: clone 2-30 (MS502 heavy chain variable region mutation antibody) (antibody, V domains shown)
VH: B2 VH with G56N, L101R, S102T
VL: B2 VL
notes: as for B13
B18: clone 56-C2G4 antibody (antibody, V domains shown)
VH: B2 VH with G56A
VL: B2 VL with S94P
notes: as for B7

Target: T1, human mesothelin (MSLN) on the cell surface (human, UniProt Q13421 296-598)
T1 construct: also called MSLN of mesothelioma (H226, H2052) and pancreatic cancer (AsPC-1) cell lines; MSLN on MiaPaCa-MSLN #2 cells
T1 sequence (Q13421 other isoform, or with tags, fused parts or gaps limits assumed): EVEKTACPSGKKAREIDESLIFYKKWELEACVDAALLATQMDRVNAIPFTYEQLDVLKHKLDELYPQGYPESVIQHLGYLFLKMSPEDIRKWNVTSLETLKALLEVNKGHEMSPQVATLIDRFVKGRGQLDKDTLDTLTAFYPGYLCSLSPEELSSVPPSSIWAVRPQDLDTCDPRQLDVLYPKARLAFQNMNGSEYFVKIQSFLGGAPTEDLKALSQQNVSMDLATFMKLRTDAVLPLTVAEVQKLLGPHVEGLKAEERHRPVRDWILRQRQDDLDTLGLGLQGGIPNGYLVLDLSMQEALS
Assay: FACS on MSLN stable cell line (#2), left panels; sheet note: 1st Ab 1 µg (1st assay), 2nd Ab anti-human Fc antibody FITC
Procedure: FACS test was performed on the MSLN present in the cell surface with regard to MiaPaCa-MSLN which is a cell line in which the MSLN was artificially expressed. Cells to be analyzed that were grown in a culture dish were separated by adding a Tryple Express solution and stored in a 50 mL tube, followed by centrifugation at 2000 rpm at room temperature for 3 minutes to decant the culture fluid, and the obtained product was washed once with PBS. The cells were suspended with FACS buffer, and transferred to a round bottom tube and centrifuged at 2000 rpm at room temperature for 3 minutes. The supernatant was discarded and the cells were well-loosened with the FACS buffer so as to have a cell density of 4×10⁵/mL. Then, 1 μg of candidate antibody was added thereto at 4° C. After 1 hour, the resultant material was washed with the FACS buffer twice, and goat-derived anti-human IgG antibody (FITC junction) was added in an amount of 1 μL for each sample to be combined at 4° C. for 30 minutes. The cells were collected by centrifugation at 2000 rpm for 3 minutes, and 500 μL of fixation buffer was added to resuspend the cells, and the cells were measured by FACS calibur (FIG. 6).
The FACS test was performed to evaluate whether the anti-MSLN antibody was selectively bound to the MSLN-overexpressing cell line (MiaPaCa-MSLN #2). The anti-MSLN candidate antibody was labeled by the method described in Example 4-2 above, and the cells were measured by FACS calibur (FIG. 7).

With B1 as the binder, how does the “Mean, FL1-H” value read?
Its value is 419.

With B2 as the binder, how does the “Mean, FL1-H” value read?
The value was 293.

For B3, which “Mean, FL1-H” value is on record?
Its value is 181.

For B4, which “Mean, FL1-H” value is on record?
Its value is 410.

How did the “Mean, FL1-H” value turn out when B5 was run?
Its value is 225.

With B6 as the binder, how does the “Mean, FL1-H” value read?
The value was 250.

Target: T1, human mesothelin (MSLN) on the cell …
Assay: FACS on MiaPaCa-MSLN #2 cells, upper histogram and table

With B1 as the binder, how does the “Mean, FL2-H” value read?
The value was 2880.

How did the “Mean, FL2-H” value turn out when B2 was run?
The value was 2280.

Which “Mean, FL2-H” value does the source give for B7 here?
Its value is 2280.

Target: T2, recombinant human mesothelin (MSLN) (human, UniProt Q13421 296-580, limits assumed)
T2 construct: also called human MSLN; recombinant human MSLN
T2 sequence (Q13421 other isoform, or with tags, fused parts or gaps limits assumed): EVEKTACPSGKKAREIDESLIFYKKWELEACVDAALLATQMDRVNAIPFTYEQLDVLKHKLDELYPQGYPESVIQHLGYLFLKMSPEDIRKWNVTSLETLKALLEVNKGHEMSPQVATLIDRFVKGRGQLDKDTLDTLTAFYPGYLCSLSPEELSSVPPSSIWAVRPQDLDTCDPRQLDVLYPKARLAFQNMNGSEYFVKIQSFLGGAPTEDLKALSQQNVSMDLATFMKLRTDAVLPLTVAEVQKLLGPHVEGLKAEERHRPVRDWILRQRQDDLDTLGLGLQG
Assay: SPR, Biacore T-200; MSLN amine-coupled to CM5 chip, IgG in flow
Procedure: Quantitative binding force (affinity) of the purified anti-MSLN antibodies, i.e., MI323, MI329, MI403, MS502 clone antibodies with regard to recombinant human mesothelin (MSLN) was measured by using a Biacore T-200 (GE Healthcare, U.S.A.) biosensor. […] Then, […] serially diluted with HBS-EP buffer (10 mM HEPES, pH7.4, 150 mM NaCl, 3 mM EDTA, 0.005% surfactant P20) was allowed to flow at a concentration range of 0.078 nM to 5 nM and at a flow rate of 30 μL/min for association of 120 seconds and dissociation of 1800 seconds. The dissociation of the antibody bound to the MSLN was induced by flowing 10 mM Glycine-HCl pH 1.5 at a flow rate of 30 μL/min for 30 seconds (Table 7). The affinity was obtained as movement speed constants (Kₒₙ and Koff) and an equilibrium dissociation constant (KD) by using a Biacore T-200 evaluation software (Table 8).

How did the Kd turn out when B1 was run?
Its Kd is 0.18 nM.

For B2, which Kd is on record?
Its Kd is 0.23 nM.

With B4 as the binder, how does the Kd read?
The Kd was 0.035 nM.

Which Kd does the source give for B6 here?
The Kd was 0.45 nM.

Target: T2, recombinant human mesothelin (MSLN)
Assay: ELISA, clone supernatant on MSLN-coated plate
Procedure: Single colonies of a phage display synthetic scFv library final amplified population were collected, and cultured with 1.5 mL of SB/carbenicillin to an OD₆₀₀ of 0.8 to 1.0 at 37° C. and at 220 rpm, and then cultured with 1 mM IPTG at 30° C. and at 200 rpm for 12 hours or more. The reaction materials were centrifuged at 5500 rpm for 5 minutes, and only each supernatant was added to ELISA plates containing underlying MSLN antigen, and reacted at room temperature for 2 hours. Then, the resultant materials were washed with PBST (1×PBS, 0.05% tween 20) four times, and HRP/Anti-hFab-HRP conjugate diluted by 1/5000 with 1% BSA/1×PBS was added thereto, and reacted at room temperature for 1 hour, and washed with PBST (1×PBS, 0.05% tween 20) 4 times. Then, a TMB solution was added thereto and reacted for 5 to 10 minutes, and a TMB stop solution was added thereto. Next, O.D values were measured at a measurement wavelength of 450 nm using a TECAN sunrise, and clones having high O.D. value were secured as individual clones.

Does B8 bind?
Result: binds

Does B9 bind?
Result: binds

Does B10 bind?
Result: binds

Does B11 bind?
Result: binds

Does B12 bind?
Result: binds

Target: T2, recombinant human mesothelin (MSLN)
Assay: SPR, Biacore T-200; MSLN amine-coupled to CM5 chip, IgG in flow
Remark: another data set of the same source
Procedure: The quantitative binding force (affinity) of each of the purified anti-MSLN antibodies, i.e., MS502 clone heavy chain variable region mutation antibodies 56, 2-30, 2-73, 2-78, and the combination antibodies of the C2G4 light chain variable region and the heavy chain variable region mutation antibodies including 56-C2G4, 2-30-C2G4, 2-73-C2G4, 2-78-C2G4 with regard to recombinant human mesothelin (MSLN) was measured by using a Biacore T-200 (GE Healthcare, U.S.A.) biosensor. […] Then, the clone 56 antibody, the clone 2-30 antibody, the clone 2-73 antibody, the clone 2-78 antibody, the clone 56-C2G4 antibody, the clone 2-30-C2G4 antibody, the clone 2-73-C2G4 antibody, and the clone 2-78-C2G4 antibody serially diluted with HBS-EP buffer (10 mM HEPES, pH7.4, 150 mM NaCl, 3 mM EDTA, 0.005% surfactant P20) were allowed to flow at a concentration range of 0.078 nM to 5 nM and at a flow rate of 30 μL/min for association of 120 seconds and dissociation of 1800 seconds. The dissociation of the antibody bound to the MSLN was induced by flowing 10 mM Glycine-HCl pH 1.5 at a flow rate of 30 μL/min for 30 seconds (Table 17). The affinity was obtained as movement speed constants (Kₒₙ and Koff) and an equilibrium dissociation constant (KD) by using a Biacore T-200 evaluation software (Table 18).

With B13 as the binder, how does the Kd read?
Its Kd is 0.125 nM.

B14 was tested. Which Kd did it give?
Its Kd is 0.0163 nM.

How did the Kd turn out when B15 was run?
Its Kd is 0.165 nM.

How did the Kd turn out when B16 was run?
Its Kd is 0.234 nM.

With B17 as the binder, how does the Kd read?
The Kd was 0.166 nM.

B7 was tested. Which Kd did it give?
The Kd was 0.0372 nM.

B18 was tested. Which Kd did it give?
The Kd was 0.163 nM.
